Data on nine sequences can be found in a protein production outcome set (Wang et al. 2014).

The data set in a line: label from the status in PepcDB records.
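Also: failed if final PepcDB status was selected cloned or expressed and not failed if soluble or beyond.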

Regarding “MNENHLLDLEEQKTDLGRVEISPEVIEVIAGIAASEVEGVATMRGNFAAGVAEKLGYKNHGKGVKVDLNDEGIIVDVSVIILYGVSVPEVAKKIQQNIKQALQTMTAIELQSINVHIVGVHFEAVDGEEETKLEHHHHHH”, the protein production result is “failed”.
The value for “MNEQRLSMRLERVATHVPAGARLADIGSDHGYLPVALLNRGAVSAAVAGEVALTPFYAAERTVRENDLDQQISVRLADGLAAIEPTDRITAISLCGMGGETIRDILESGKARLSGQERLILQPNGGEQPLRVWLMEHNYRILDEEVLRENRFDYEIIVAERTGPMIYTAEQLYFGPIQMQTRSPAFLLKWQRLLGKKHKALSNFARARKAVPEEKMQDLAQQIRWITALLN” was “failed”.
For “MNFDRIFAWPLTSLEVFMNLALPSQYQFLPRFFRLATIAVLSNMMVPLAGLVDTAFLGHLEDIDYLAGVILGSILFDYLYRVLKFLRTSTTALTAQAVGEEDQAEVWVAGLRSALVALLLGLGILALQYPLQKFGFALLTGAPGVEQSGMDYFYGRIWGAPAVLLNFVILGWLLGQERNGLVLLISLVANFSNVGLDYLMINRWGWASAGAGWATASSQYLALALGLISIVVLAQGEKEKGEFKAAIAKLSDWGALRATIALKGNILIRFVILITTYSLFTNISSSFGTEVLAQNGLLLQIALLSQFTIQGVGMTSQTLTGNFKSKGEYQLLLPVLLTAIVTTLLMALGFAAVAIAFPETLFGLLTNHAEINDSVRQYTIWLIPLLESTALAFMLEAYFIGLKASQPLRNGVLFAFFGIYLPCLGLAIWQQSNNLLWFSLVSYMLGLVVYLGWQLLTRFSPQTLALESKQPS”, the protein production entry is “failed”.
For the sequence “MNFIQSNLNNLLAIAWFALCWGGYTRYAIWKGRDTACLASVLHLYREDWMRRMLLRDNRIADASVIGNLERNASFFASSTLIILAGILTVLGASDRALSLLADLPLVQQTSQGMSEIKLLCLAMVFVYAFFTFSWCMRQYNFAAVLVGSAPMIGERLVNELERKAFASRAARVLSLAANQFNLGLRSYYFGMAMLSWFISPWLFMAMSVGVVLILYRREFHSDVLDVMVFTPTESVLSEPAKESSVVSN”, the protein production entry was “failed”.
As for “MNFISDQVKKLSSSTPEEPDHNKPVEGTETATRPATNAELMASAKVVAEAAQAAARNESDKLDKGKVAGASADILDAAEKYGKFDEKSSTGQYLDKAEKYLNDYESSHSTGAGGPPPPTSQAEPASQPEPAAKKDDEESGGGLGGYAKMAQGFLK”, the protein production result is “failed”.
The value for “MNFIVIGAGNIGSGIAQNLLEDGHEVEIADKSRESLNRIRGRNPKIRTREFDVMDRSAYRMLNDYDASVSALPGSIGMQFLKNVAKMGKIVVDVSYMEEDPYDLNGIAQSAGTIIVPDMGFAPGLTNAIVGYFSADLDQIRNVKIYVGGIPEKPVPPLDYTITWSVEG” was “failed”; that for “MNFLSIFVLIPLLMLAGLWAARGIKAIRGVMVTGASALLIASVVLTFMYLGERSAGNTAEMLFRADTLWYAPLHISYSVGVDGISVAMLLLSAVIVFTGTFASWRLQPLTKEYFLWFTLLSMGVFGFFISIDLFTMFMFYEIALIPMYLLIGVWGSGRKEYAAMKLTLMLMGGSAFLLIGILGIYFGSGATTMNLLEIAQLHNIPFAQQCIWFPLTFLGFGVLGALFPFHTWSPDGHASAPTAVSMLHAGVLMKLGGYGCFRIAMYLMPEAANELSWIFLILTGISVVYGAFSACVQTDLKYINAYSSVSHCGLVLFAILMLNQTAATGAILQMLSHGLMTALFFALIGMIYGRTHTRDVRELTGLMKVMPFLSVCYVIAGLANLGLPGLSGFIAEMTIFVGSFQNNDVFHRTLTIIACSSIVITAVYILRLVGKILYGTCTNKHHLALTDATWDERVAVICLIVCVAGLGMAPFWVSHMIGESVLPVVSQLIP” was “failed”.
For “MNFNQFENQNFFNGNPSDTFKDLGKQVFNYFSTPSFVTNIYETDELYYLEAELAGVNKEDISIDFNNNTLTIQATRSAKYKSEQLILDERNFESLMRQFDFEAVDKQHITASFENGLLTITLPKIKPSNETTSSTSIPIS”, the protein production result was “failed”.
Consider “MNFNYQTAWPSLSRSFEWSPAMTSSSVNPAEKFDRSRADEYARQSRIALAGYDACHDLAACMLAASLGEGRAAHILAVGAGGTAQEIIAMASLEPGWRFTAVDPSAPMLETARQQLQAQGLLERTEVRLATVDELAADEPFDGATLIGVLHHLPGDEAKRQLLRAIARRLKPGAPLIVAGNHYAYAGQPLLLAAWGQRWRQQGATADEVHAKLGKILQGADPPHSEAAVQRLLEEGGFSAGTRFFSSLFWGAWLSRKRC”, for which the protein production entry is given as “failed”.
